This note sets out measurements from US20060235215A1 (published 2006).

Holding throughout (experiment): yeast two-hybrid
The target of experiment [1] is T1, Elicitor responsive protein, bait fragment aa 50-145 (Oryza sativa, UniProt Q0JBH9 50-144).
T1 construct: bait; also called OsERP; PN20696
T1 sequence: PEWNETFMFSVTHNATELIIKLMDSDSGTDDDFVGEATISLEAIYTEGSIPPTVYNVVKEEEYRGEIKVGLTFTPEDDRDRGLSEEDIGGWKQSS

For experiment [2], the target named is T2, O. sativa Chilling-Inducible Protein CAA90866, bait clone aa 100-250 (Oryza sativa).
T2 construct: bait; also called OsCAA90866; PN20311
T2 chain: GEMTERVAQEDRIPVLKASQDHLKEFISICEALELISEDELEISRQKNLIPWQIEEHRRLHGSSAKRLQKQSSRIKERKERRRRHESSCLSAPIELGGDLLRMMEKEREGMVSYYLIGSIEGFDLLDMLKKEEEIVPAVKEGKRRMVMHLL

The target in experiment [3] is T3, O. sativa Serine/Threonine Protein Phosphatase PP2A-2, Catalytic Subunit, bait fragment aa 1-308 (Oryza sativa, UniProt A2XN40 1-307).
T3 construct: bait; also called OsPP2A-2; PN20254
T3 sequence (A2XN40 whole entry, the tested form may be a part): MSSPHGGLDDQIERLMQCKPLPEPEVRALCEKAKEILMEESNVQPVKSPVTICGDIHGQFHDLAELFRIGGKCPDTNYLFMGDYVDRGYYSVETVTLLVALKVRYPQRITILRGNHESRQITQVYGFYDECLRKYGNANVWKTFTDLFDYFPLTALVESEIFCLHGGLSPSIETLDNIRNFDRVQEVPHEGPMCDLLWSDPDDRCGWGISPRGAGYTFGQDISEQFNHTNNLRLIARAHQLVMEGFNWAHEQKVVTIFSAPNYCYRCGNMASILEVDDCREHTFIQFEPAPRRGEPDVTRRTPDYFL

B1: Novel protein PN30844, prey clone aa 1-64 (other)
chain: VAVRKKETRDGAMQTMPSRVQQGAADFEETLFVRCHLYCSGGAGTGKPLRFEPRPFLLSAVAVE
notes: prey; AD fusion; input trait library
As for B1, the binding result in experiment [1] is recorded as “binds”.

B2: Hypothetical Protein ORF020300-2233.2, Putative PP2A Regulatory Subunit, Similar to OsCAA90866, prey clone aa 1-206 (other)
chain: MVEVEEVSNKMQAQMRLHPAAAAEEEDADLPLPALFDKASHLHSLASSSSLDQEGIRKGVDLLRRCDEMVSKLGLFSSNETKDDVSTANLKYLLVPYYLGEMTERVAQEDRIPVLKASQDHLKEFISICEALELISEDELELSRQKQPDTMANRRAQKAARFKRQKAAETKLLEIKERKERRRRSLRAAALSAPIEAGEEDAFEDD
notes: prey; AD fusion; output trait library; three clones; also called OsORF020300-2233.2
In the case of B2, the binding result in experiment [2] is given as “binds”.

B3: Hypothetical Protein ORF020300-2233.2, Putative PP2A Regulatory Subunit, Similar to OsCAA90866, prey clone aa 1-190 (other)
chain: MVEVEEVSNKMQAQMRLHPAAAAEEEDADLPLPALFDKASHLHSLASSSSLDQEGIRKGVDLLRRCDEMVSKLGLFSSNETKDDVSTANLKYLLVPYYLGEMTERVAQEDRIPVLKASQDHLKEFISICEALELISEDELELSRQKQPDTMANRRAQKAARFKRQKAAETKLLEIKERKERRRRSLRAAA
notes: as for B2
Take B3: the binding result in experiment [2] is “binds”.
On to APSSSSGTTSRPTASRTQQTKGRLTVTISLKAYSPGRT (other, prey; AD fusion; input trait library) [Novel Protein PN29984, prey clone aa 1-38], for which the binding result in experiment [1] is given as “binds”.

B4: Novel protein PN29983, prey clone aa 1-131 (other)
chain: GVETVVTDTAGNKVVVTGAADAAELKERIEARTKKAVQIVSAGAGPPPKKDKEEKKDKDKKGGGDDKKAEKEKGGGGGDKKAEKEKGGGDKPKEEKKAKEPKEETVTLKIRLHCEGCIDRIKRRICKIKGG
notes: as for B1
Turning to B4, in experiment [1], the binding result is given as “binds”.

B5: Ubiquitin specific protease-like PN30843, prey clone aa 164-221 (other)
chain: RALQNFTAEELLDGGEKQYQCQRCRKKVVAKKKFTIDKAPYVLTIHLKRFSPFNPREK
notes: as for B1
For B5, the binding result in experiment [1] is reported as “binds”.

B6: O. sativa Putative Pyrrolidone Carboxyl Peptidase, prey clone aa 92-222 (other)
chain: FGVNSGTTRFALENQAINEATFRCPDELGWKPQRAPIVSSDGSISNLRKTTVPVNEVNKSLQQMGFDVAPSDDAGRFVCNYVYYQSLRFAEQRGIKSLFVHFPLFTTISEEVQMNFVATLLEVLASQNYAQ
notes: prey; AD fusion; input trait library; two clones; also called OsAAG46136; PN23186
For the molecule B6, the binding result in experiment [2] was “binds”.

B7: Hypothetical Protein ORF020300-2233.2, Putative PP2A Regulatory Subunit, Similar to OsCAA90866, prey clone aa 93-387 (other)
chain: LLVPYYLGEMTERVAQEDRIPVLKASQDHLKEFISICEALELISEDELELSRQKQPDTMANRRAQKAARFKRQKAAETKLLEIKERKERRRRSLRAAALSAPIEAGEEDAFEDDGEEEREAWLATISLALCKAFDLLDMLKKEEEMLLAVKERQAKDGNAFAREMLDERTKKAEAWHHNAANRAPYSKPADPITCATFAQDVIEGRASVSQAHEHKHQPLIFGPASLVGGGLTSERERMAAQVFQPSYRLPTMSIEEAGLREMKMMEKWQERTAKMIQESNSAWHKDGSRSAQED
notes: prey; AD fusion; input trait library; also called OsORF020300-2233.2
B7: the binding result in experiment [3] was “binds”.

B8: NAD(P) binding domain protein PN30868, prey clone aa 167-336 (other)
chain: YNELAQLRAGKSSKSKLLIAKFKSPKSLNGWEVDQGSYFPNTFASRFDEGIDASFDFSEAGQAVFSGFVFTRGGYVEISKRLSLPLGSTLDRYDGLLFSVGGNGRSYVVILETGPLADTSQSKKYFARMTTKVGFCRVRVPFSAFRPVNPQDPPLDPFLVHTLTIRFEPK
notes: as for B1
In the case of B8, in experiment [1], the binding result was “binds”.

B9: Pectinesterase-like PN30845, prey clone aa 1-64 (other)
chain: GDQGRTYLFRVSNVGVKTSVNVRIQGHSLRLVEVEGTHPVQNVYDSLDVHVGQSVAFLVTLDKA
notes: as for B1
B9: the binding result in experiment [1] was “binds”.

B10: Novel Protein PN23045, prey clone aa 240-287 (other)
chain: ILSKLVQAKELLKEYVEREKKKREERSETPKSNEAVTKFDGSLNSMRH
notes: prey; AD fusion; input trait library; two clones; also called OsPN23045
For the molecule B10, the binding result in experiment [2] is “binds”.

B11: Novel Protein PN23225, Similar to Triticum aestivum Initiation Factor (iso)4f p82 Subunit, prey clone aa 639-792 (other)
chain: FGIRILDEAQQCIEELQCPEYYSEIVKEAINLALDKGPNFIDPLVRLLEHLHTKKIFKTEDLKTGCLLYAALLEDIGIDLPLAPALFGEVVARLSLSCSLSFEVVEEILKAVEDTYFRKGIFDAVMKTMGGNSSGQAILSSHAVVIDACNKLLK
notes: prey; AD fusion; input trait library; also called OsPN23225
For the molecule B11, in experiment [2], the binding result is given as “binds”.

B12: Novel Protein 23268, Similar to Phosphoribosylanthranilate Transferase, Chloroplast Precursor, Fragment, prey clone aa 12-200 (other)
chain: SEEEAEATLRLLLEEENEARIAAFLVLLRAKGETYEEIVGLAKAMIGCCVRVDGLDDAVDIVGTGGDGADTVNISTGSTILAAAAGAKVAKQGSRASSSACGSADGIKRCVNEVGVGFMMSANYHPAMKIVKPVRKKLKIKTVFNILGPLLNPARVPYAVIGVYHENIVTKMAKAAQKFGMKRALVVHS
notes: prey; AD fusion; input trait library; two clones; also called OsPN23268; Os23268
B12: the binding result in experiment [3] was “binds”.

B13: Novel Protein PN29883, Fragment, prey clone aa 58-175 (other)
chain: YGQLKAAQPFFLLAGPNVIESEEHVLKMAKHIKGITTKLGLPLVFKSSFDKANRTSSKSFRGPGLEEGLKILEKVKATYDIPVVTDVHESHQCEAAGRVADIIQIPAFFCRQTDLLVA
notes: prey; AD fusion; output trait library; also called OsPN29883
For B13, in experiment [2], the binding result is “binds”.

B14: O. sativa Putative Proline-Rich Protein AAK63900, prey clone aa 122-224 (other)
chain: AAVAGKTHYRSALCASVTICGPIKKKIIDHFHKKPVPPKPEPKPEPPKPKPEPEHPFLDHIHKKEKHFFDHFHKKPVPPKPEPKPEPKPQPAPEYHNPSPPAN
notes: prey; AD fusion; input trait library; also called OsAAK63900; PN23266
On to B14, for which, in experiment [3], the binding result is “binds”.

B15: Hypothetical Protein ORF020300-2233.2, Putative PP2A Regulatory Subunit, Similar to OsCAA90866, prey clone aa 118-388 (other)
chain: SQDHLKEFISICEALELISEDELELSRQKQPDTMANRRAQKAARFKRQKAAETKLLEIKERKERRRRSLRAAALSAPIEAGEEDAFEDDGEEEREAWLATISLALCKAFDLLDMLKKEEEMLLAVKERQAKDGNAFAREMLDERTKKAEAWHHNAANRAPYSKPADPITCATFAQDVIEGRASVSQAHEHKHQPLIFGPASLVGGGLTSERERMAAQVFQPSYRLPTMSIEEAGLREMKMMEKWQERTAKMIQESNSAWHKDGSRSAQEDE
notes: as for B7
Regarding B15, the binding result in experiment [3] is recorded as “binds”.

B16: O. sativa Chilling-Inducible Protein CAA90866, prey clone aa 1-126 (other)
chain: MVEVEEVSNKMQVQMRLHPAAAAEEEDADLPLPALFDKASHLHSLASSSSLDQEGIRKGVDLLRRCDEMVSKVGLFSSNETKDDISTANLKYLLVPYYLGEMTERVAQEDRIPVLKASQDHLKEFI
notes: prey; AD fusion; output trait library; also called OsCAA90866; PN20311
For the molecule B16, the binding result in experiment [2] was “binds”.

B17: Novel protein PN30857, prey clone aa 1-148 (other)
chain: QDTRPLQAQRRRHGGGPQDRQREPSQGDFLRRQREEHPGGEEDRAPHGAGGHAAAGEGRGPRAGEHPQHQGGAAGAVGGGREGGGRAHLLRPRRHRDIGDRVGHTYCLSRLRRIAQNEQPSIHPCPSLAGQVIIRWEFRIGRDNNTFQ
notes: as for B1
With B17, in experiment [1], the binding result was “binds”.
As for SSGTTSRPTASRTQQTKGRLTVTISLKAYSPGRTRSG (other, prey; AD fusion; input trait library) [Novel Protein PN29984, prey clone aa 5-41], the binding result in experiment [1] is “binds”.

B18: Isp-4 like PN30870, prey clone aa 1-446 (other)
chain: GEEDEHPHEGRAGVERRRQHVVVLLPPPLAVLEHEVVEDGARDEPARDVGRRRRRHPGEPVGDDGDVDERDPLLLRERPAEQPHRHGQHGAGEEQPHQVAVQAVAAEQPGGADEPPDHRRVERDPVLGARPRAVRVQRLHVADVVDAAQHPPRHRQVHHAGDHRAHQLRRVHAPRRDLHVVPQLEVREERQRVHRADPPVDLEQQVRDRLPRQRVPDHELRDDVVPRLLVGGGLDDADGEGDDEGEGEGEEHPPPRQLHLLPVHERHDQRHGDAADEQHEEPPLRHLLVPPHQLRVHVHLRRRGAHRRPALPPDVPAVEQRHVHDRRREPQEPGPDGDGEQRAQVQLPVALVRRHVEVELPREHLGGVVLLPGRREQLVGEDWELPRVERVELPVAERHDEVDEHDEARGGVGDGRPRRHQRAPVVRRDAGPVQCEGADAEAVVAG
notes: as for B1
Take B18: the binding result in experiment [1] was “binds”.
